Experiments:
[1] = molecular target: nesprin-2, endogenous ~200 kDa band of neonatal rat heart and neonatal rat cardiomyocytes; assay: co-immunoprecipitation with telethonin antibody, Western blot densitometry; conditions: lysates harvested 48 h after adenoviral infection, n = 5, parent: est. 1.0, read off a plot
[2] = molecular target: T1, His-telethonin (full length, pET DUET-1, N-terminal 6x Histidine tag), co-expressed with nesprin-2 SR51-53 (UniProt O15273 1-167); assay: SEC; His-telethonin and untagged nesprin-2 SR51-53 co-expressed in E. coli, His-trap, Superdex 200 16/60, then Superdex 75 10/300; 50 mM Tris/HCl pH 7.5, 150 mM NaCl, 100 mM βME; single peak at 10.29 ml, both proteins found by Western blot; conditions: both partners purified
T1 construct: telethonin, full length; printed mass 19 kDa; source: E. coli BL21(DE3)pLysS, co-expressed with nesprin-2 SR51-53, co-purified (His-trap, SEC); not shown: 6x His, N-terminal, kept
T1 sequence (looked up): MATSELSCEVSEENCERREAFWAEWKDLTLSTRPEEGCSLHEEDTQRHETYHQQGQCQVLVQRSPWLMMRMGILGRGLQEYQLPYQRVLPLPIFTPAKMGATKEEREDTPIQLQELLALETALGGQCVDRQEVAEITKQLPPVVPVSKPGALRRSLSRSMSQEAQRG

Question: For “HA-tagged WT telethonin expressed from adenovirus in neonatal rat cardiomyocytes (from UniProt O15273) S157A; S161A”, which ratio to parent [1] is on record?
Answer: Its ratio to parent is 4.8.

B1: nesprin-2 SR51-53 (no tag), co-expressed with His-telethonin (domain or fragment, human, UniProt Q8WXH0 6018-6354, looked up)
chain: KETFAFIQQLDKNMSNLRTWLARIESELSKPVVYDVCDDQEIQKRLAEQQDLQRDIEQHSAGVESVFNICDVLLHDSDACANETECDSIQQTTRSLDRRWRNICAMSMERRMKIEETWRLWQKFLDDYSRFEDWLKSAERTAACPNSSEVLYTSAKEELKRFEAFQRQIHERLTQLELINKQYRRLARENRTDTASRLKQMVHEGNQRWDNLQRRVTAVLRRLRHFTNQREEFEGTRESILVWLTEMDLQLTNVEHFSESDADDKMRQLNGFQQEITLNTNKIDQLIVFGEQLIQKSEPLDAVLIEDELEELHRYCQEVFGRVSRFHRRLTSCTPGL
notes: nesprin-2 giant, human, spectrin repeats 51-53, amino acids 6018-6354 of the full length of nesprin-2 giant; in CDF DUET-1 without a tag; printed mass 40.51 kDa; source: E. coli BL21(DE3)pLysS, co-expressed with His-telethonin, co-purified (His-trap, SEC)
Question: For B1, which “stoichiometry N” value [2] is on record?
Answer: Its value is 1 nesprin-2 SR51-53 per telethonin.
